Data published in the nanobody polyreactivity screen of Harvey et al. (2022).

Assay: yeast display, Sf9 membrane polyspecificity reagent, FACS + sequencing; frameworks hold sequencing errors
Outline: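 Sorting gates, low and high (top ~1%), were placed on anti-HA fluorescence to track expression and on streptavidin fluorescence to track reagent binding. A clone's polyreactivity label is taken from the gate it came out of. The reagent was 10% biotinylated, detergent-solubilized Sf9 membrane, applied for 1 hour at 4 °C to galactose-induced yeast display cells.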

Row | Sequence | polyreactivity (PSR sort gate)
1 | QVQLVESGGGLVQAGGSLRLSCAASGSTFPPYAMGRYRQAPGKERELVAAIDWSDGTTYYADSVKGRFTISRDYAKNTVYLQMNSLKPEDTAVYYCAGSLSQSEYDYWGQGTQVTVSS | low polyreactivity
2 | QVQLVESGGGLVQAGGSLRLSCAASGSTFPPYAMGWYRQAPGKEREFVARISWTGGSTYYADSVKGRFTISRDNAKNTVYLQMNCLKPEDTAVYYCAAKSYWGQGTQVTVSS | high polyreactivity
3 | QVQLVESGGGLVQAGGSLRLSCAASGSTFPPYAMGWYRQAPGKERELVADITRRGASTYYADSVKGRFTISRDNAKNTVYLQMNSLKPEDTAVYYCNAGRSRRYRIGRYYYWGQGTQVTVSS | high polyreactivity
4 | QVQLVESGGGLVQAGGSLRLSCAASGSTFPQNVMGWYRQAPGKERELVAAITRSAGSTYYADSVKGRFTISRDNAKNTVYLQMNSLKPEDTAVYYCNTGRQRGDGWGQGTQVTVSS | high polyreactivity
5 | QVQLVESGGGLVQAGGSLRLSCAASGSTFPQYAMGWYRQAPGKERELVAAISFSGGSTYYADSVKGRFTISRDNAKNTVYLQMNSLKPEDTAVYYCAAELGLAQYYYWGQGTQVTVSS | low polyreactivity
6 | QVQLVESGGGLVQAGGSLRLSCAASGSTFPRNAMVWYIQAPGKERELVAAISRRGGSTYYADSVKGLFTISRDNAKNTVYLQMNSLKPEDTAVYYCAAATRYAIYGRYSRYDYWGQGTQVTVSS | high polyreactivity
7 | QVQLVESGGGLVQAGGSLRLSCAASGSTFPRYAMGWYRQAPGKERELVAAMSSSGGRTYYADSVKGRFTISRDNAKNTVYLQMNSLKPEDTAVYYCAARAFKTIIYDYWGQGTQVTVSS | high polyreactivity
8 | QVQLVESGGGLVQAGGSLRLSCAASGSTFPSNAMGWYRQAPGKERELVAAIRGRGGSTYYADSVKGRFTISRDNAKNTVYLQMNSLKPEDTAVYYCAKKVRSYVRWEYDYWGQGTQVTVSS | low polyreactivity
9 | QVQLVESGGGLVQAGGSLRLSCAASGSTFPSNVMGWYRQAPGKERELVAAITWSGGRTYYADSVKGRFTISRDNAKNTVYLQMNSLKPEDTAVYYCAVRSSYVRYDYWGKGTQVTVSS | high polyreactivity
10 | QVQLVESGGGLVQAGGSLRLSCAASGSTFPSYAMGWYRPAPGKERELVAAINSGGGTNYADSVKGRFTISRDNAKNTVYLQMNSLKPEDTAVYYCAKSRYEYTKTEGGYWGQGTQVTVSS | low polyreactivity
11 | QVQLVESGGGLVQAGGSLRLSCAASGSTFPSYAMGWYRQAPGKERELVAAINSGGGTNYADSVKGRFTISRDNAKNTVYLQMNSLKPEDTAVYYCAKSRYDYNKTEGGYWGQGTQVTVSS | low polyreactivity
12 | QVQLVESGGGLVQAGGSLRLSCAASGSTFPSYTMGWYRLAPGKERELVAAITLSGGSTYYADSVKGRFTISRDKAKNTVSLQMNSQKPEDTAVYYCAAYSQRGYDYWGQGTQVTVSS | low polyreactivity
13 | QVQLVESGGGLVQAGGSLRLSCAASGSTFPTNAMGWYRQAPGKERELVATITSTGSTKYADSVKGRFTISRDNAKNTVYLQMNSLKPEDTAVYYCAADEYAYASRFYWALIHDYWGQGTQVTVSS | low polyreactivity
14 | QVQLVESGGGLVQAGGSLRLSCAASGSTFPTYAMGWYRQAPGKERELVAAISRSGGRTYYADSVKGRFTISRDNAKNTVYLQMNSLKPEDTAVYYCAAQYRLSGGYNYDYWGQGTQVTVSS | high polyreactivity
15 | QVQLVESGGGLVQAGGSLRLSCAASGSTFPVNAMGWYRQAPGKERELVATIRWTGGGTYYADSVKGRFTISRDNAKNTVYLQMNSLKPEDTAVYYCAADPPWEWSDYGYDYWGQGTQVTVSS | low polyreactivity
16 | QVQLVESGGGLVQAGGSLRLSCAASGSTFPVNTMGWYRQAPGKERELVAAISSDDNTNYADSVKGRFTISRDNAKNTVYLQMNSLKPEDTEVYYCAVKGHPAYVEVPPRYAWEFDYWGQGTQVTVSS | low polyreactivity
17 | QVQLVESGGGLVQAGGSLRLSCAASGSTFPVYVMGWYRPAPGKERELVAAITRSGGSTYYADSVKGRFTISRDNAKNTVYLQMNSLKPEDTAVYYCNKDVWDGYDWPEFDYWGQGTQVTVSS | low polyreactivity
18 | QVQLVESGGGLVQAGGSLRLSCAASGSTFPWYAMGWYRQAPGKEREVVAAISSSGGSTYYADSVKGRFTISRDKAKNTVYLQMNSLKPEDTAVYYCNAQHPGYYWGYDYWGQGTQVTVSS | high polyreactivity
19 | QVQLVESGGGLVQAGGSLRLSCAASGSTFPYNAMGWYRQAPGKERELVAAITWRAGRTYYADSVKGRFTISRDNAKITVYLHMNSLKAEDTAVYYCAKSYQRGVNHYEYWGQGTQVTVSS | high polyreactivity
20 | QVQLVESGGGLVQAGGSLRLSCAASGSTFPYNAMGWYRQAPGKERELVASISRRGGSTYYADSVKGRFTISRDNAKNTVYLQMNSLKPEDTAVYYCNASGGPYRYYYWGQGTQVTVSS | low polyreactivity
21 | QVQLVESGGGLVQAGGSLRLSCAASGSTFPYNAMGWYRQAPGKEREMVAAITYSGGSTYYADSVKGRFTISRDNAKNTVYLQMNSLKPEDTAVYYCNADDSTTYDYWGQGTQVTVSS | low polyreactivity
22 | QVQLVESGGGLVQAGGSLRLSCAASGSTFPYNTMGWYRQAPGKEREFVAAITGDGGTTYYADSVKGRFTISRDNAKNTVYLQMYSLKPEDTAVYYSAVPYPAEGYGGDYWGQGTQVTVSS | low polyreactivity

Row | Sequence | polyreactivity (PSR sort gate)
23 | QVQLVESGGGLVQAGGSLRLSCAASGSTFPYPYTMGWYREAPGKERELVAVISRTGGSTFYADSVKRRFTISRDNAKNTVYLQMNSLKPEDTAVYYCAARRDGWTFWKYDYWGQGTQVTVSS | high polyreactivity
24 | QVQLVESGGGLVQAGGSLRLSCAASGSTFPYVMGWYTPAPGKERELVAAISQRTGSTYYADSVKGRFTISRDNAKNSVYLQMNILKPEDTAVYYCAKPVYLSPSRYDYWGQGTQVTVSS | high polyreactivity
25 | QVQLVESGGGLVQAGGSLRLSCAASGSTFPYYAMGWYRQAPGKERELVAAISKSGGSTYYADSVKGRFTISRDNAKNTVYLQMNSLKPEDTAVYYCAAGPRYRYYSGWYDYWGQGTQVTVSS | high polyreactivity
26 | QVQLVESGGGLVQAGGSLRLSCAASGSTFPYYAMGWYRQAPGKERELVAAISSSGGSTYYADSVKGRFTISRDNANNTVYLQMNSLKPEDTAVYYCATSSLYRYWHRYDYWGQGTQVTVSS | high polyreactivity
27 | QVQLVESGGGLVQAGGSLRLSCAASGSTFPYYAMGWYRQAPGKERELVAAISSSGSRTYYADSVKGRFTISRDNAKNTVYLQMNSLKPEDTAVYYCAADNAAQPYPAGMDYWGQGTQVTVSS | low polyreactivity
28 | QVQLVESGGGLVQAGGSLRLSCAASGSTFPYYAMGWYRQAPGKERELVAAITSGGSTNYADSVKGRFTISRDNAKNTVYLQMNSLKPEDTAVYYCNAEWRRRYTYLRRVYYGFDYWGQGTQVTVSS | high polyreactivity
29 | QVQLVESGGGLVQAGGSLRLSCAASGSTFQANTMGWYRQAPGKERELVAAISIRGANTYYADSVKGRFTISRDNAKNTVYLQMNSLKPEDTAVYYCNAALRTRRGDYDYWGQGTQVTVSS | high polyreactivity
30 | QVQLVESGGGLVQAGGSLRLSCAASGSTFQFNAMGWYRPAPGKEREFVAAITSSAGRTYYADSVKGRFTISRDNAKKTVYLQMNSLKPEDTAVYYCATGPYSPPSAGPEYDYWGQGTQVTVSS | high polyreactivity
31 | QVQLVESGGGLVQAGGSLRLSCAASGSTFQHYAMGWYRQAPGKERELVAAITHTGGSTYYADSVKGRFTISRDNAKNTVYLQMNSLKPEDTAVYYCATVGRRYGYPGYYWGQGTQVTVSS | low polyreactivity
32 | QVQLVESGGGLVQAGGSLRLSCAASGSTFQPNAMGWYRQAPGKERELVAISSGDDTYYADSVKGRFTISRDKAKNTVYFQMNSLIPEDSAVYYCAAEYSFIYYWGQGTQVTVSS | low polyreactivity
33 | QVQLVESGGGLVQAGGSLRLSCAASGSTFQRYAKGWYRQAPGKEWELVAGITGSVGRTYYADSVKGRFTISRDNAKNTVDLQMNSLKPQATAVSYCAADGRTWLYYGTRRDYWGQGTQVTVSS | high polyreactivity
34 | QVQLVESGGGLVQAGGSLRLSCAASGSTFQRYAMGWYRQAPGKERELVAAITWSGGSTYYADSVKGRFTISRDNAKNTGYLQMNSLKPEDTAVYYGAARSVRYGFGYWGQGTQVTVSS | high polyreactivity
35 | QVQLVESGGGLVQAGGSLRLSCAASGSTFQSYAMGWYRQAPGKERELVAAISARGGTTYYADSVKGRFTISRDNAKNTVYLQMNSLKPEDTAVYYCAVDRAFRAQNYHEYDYWGQGTQVTVSS | low polyreactivity
36 | QVQLVESGGGLVQAGGSLRLSCAASGSTFQSYAMGWYRQAPGKERELVARIRNSGGSTYYADSVKGRFTISRDNAKNTVYLQMNSLKPEDTAVYYCNARYVSRYLTYQYDYWGQGTQVTVSS | high polyreactivity
37 | QVQLVESGGGLVQAGGSLRLSCAASGSTFQTDTMGWYRQAPGKERELVASITWRGGRTYYADSVKGRFTISRDNAKNTVYLQMNSLKPEDTAVYYCAAVTFSYDGYDYWGQGTQVTVSS | low polyreactivity
38 | QVQLVESGGGLVQAGGSLRLSCAASGSTFQTYAMGWSRQAPGKERELVAAITWRGGSTYYADSVKGRFTISRDNAKNTVYLQMNSLKPDDTAVYYCAAKWNGSHDHRAAYESWGQGTQVTVSS | low polyreactivity
39 | QVQLVESGGGLVQAGGSLRLSCAASGSTFQTYAMGWYRQAPGKERELVAAITSGGSTNYADSVNGRFTISRDNAKNTVYLQMNSLKPEDTAVYYCAGRQIYQTSEHRLQYDYWGQGTQVTVSS | low polyreactivity
40 | QVQLVESGGGLVQAGGSLRLSCAASGSTFQVYGMGWYRQAPGKERELVAAISRSGGRTYYADSVKGRFTISRDNAKNTVYLQMNSLKPEDTAVYYCNAPISYYDEYYYWGQGTQVTVSS | high polyreactivity
41 | QVQLVESGGGLVQAGGSLRLSCAASGSTFQWYAMGWNIQAPGKERELVAGITRTGSTYYADSVKGRFTISRDNAKNTVYLQMNSLKPEDTAVYYCAAKWHTASGKYYYWGQVTQVTVSS | high polyreactivity
42 | QVQLVESGGGLVQAGGSLRLSCAASGSTFQWYAMGWYRQAPGKERELVAAISNGVSTNYADSVKGRFTISRDNAKNTVYLHMNSLKPEDTAVYYCAADAYPYYQSYYPFEYLGQGTQVTVSS | low polyreactivity
43 | QVQLVESGGGLVQAGGSLRLSCAASGSTFQYNVMGWYRQAPGKERELVAAITNRDGSTYYADSVKGRFTISRDNAKNTVYLQMNSLKPEDTAVYYCAAPVWLWADRYDSWGQGTQVTVSS | low polyreactivity
